Results taken from paper PMC9810211.

Target: SeTau-405 fluorescently labeled BOA (Burkholderia oklahomensis)
Assay: other fluorescence titration

For “SARS-CoV-2 Spike protein (Hexapro S) (from UniProt P0DTC2) (natural protein)”, the half-saturation point was 30 to 60 nM.
